Laboratory results as given in FireProtDB (doi:10.1016/j.jmb.2005.05.056).
Where “and” joins values, the source holds several entries; their conditions need not be identical. Equal entries are not always repeated.

Conditions: Thermus thermophilus; pH 8; 25 °C; GdnHCl; Fluorescence; Tris-HCl 50 mM; reversible: No; whole UniProt chain shown

B1: Small ribosomal subunit protein bS6 wild type, P23370 (protein)
chain: MRRYEVNIVLNPNLDQSQLALEKEIIQRALENYGARVEKVEELGLRRLAYPIAKDPQGYFLWYQVEMPEDRVNDLARELRIRDNVRRVMVVKSQEPFLANA
- denaturant m value: 2.54 kcal/mol/M and 2.76 kcal/mol/M and 2.7 kcal/mol/M
